Molecular target: flag-tagged Ran Q69L (GTPase-inactive mutant, RanGTP locked form), P62826
Experiment: co-IP
Conditions: remark: other sources report otherwise

B1: EGFP-tagged full length human IPO5 (importin 5), O00410-3 1-1115 (natural protein)
chain: MPEDQVGKLEATENTISAMAAAAAEQQQFYLLLGNLLSPDNVVRKQAEETYENIPGQSKITFLLQAIRNTTAAEEARQMAAVLLRRLLSSAFDEVYPALPSDVQTAIKSELLMIIQMETQSSMRKKVCDIAAELARNLIDEDGNNQWPEGLKFLFDSVSSQNVGLREAALHIFWNFPGIFGNQQQHYLDVIKRMLVQCMQDQEHPSIRTLSARATAAFILANEHNVALFKHFADLLPGFLQAVNDSCYQNDDSVLKSLVEIADTVPKYLRPHLEATLQLSLKLCGDTSLNNMQRQLALEVIVTLSETAAAMLRKHTNIVAQTIPQMLAMMVDLEEDEDWANADELEDDDFDSNAVAGESALDRMACGLGGKLVLPMIKEHIMQMLQNPDWKYRHAGLMALSAIGEGCHQQMEGILNEIVNFVLLFLQDPHPRVRYAACNAVGQMATDFAPGFQKKFHEKVIAALLQTMEDQGNQRVQAHAAAALINFTEDCPKSLLIPYLDNLVKHLHSIMVLKLQELIQKGTKLVLEQVVTSIASVADTAEEKFVPYYDLFMPSLKHIVENAVQKELRLLRGKTIECISLIGLAVGKEKFMQDASDVMQLLLKTQTDFNDMEDDDPQISYMISAWARMCKILGKEFQQYLPVVMGPLMKTASIKPEVALLDTQDMENMSDDDGWEFVNLGDQQSFGIKTAGLEEKSTACQMLVCYAKELKEGFVEYTEQVVKLMVPLLKFYFHDGVRVAAAESMPLLLECARVRGPEYLTQMWHFMCDALIKAIGTEPDSDVLSEIMHSFAKCIEVMGDGCLNNEHFEELGGILKAKLEEHFKNQELRQVKRQDEDYDEQVEESLQDEDDNDVYILTKVSDILHSIFSSYKEKVLPWFEQLLPLIVNLICPHRPWPDRQWGLCIFDDVIEHCSPASFKYAEYFLRPMLQYVCDNSPEVRQAAAYGLGVMAQYGGDNYRPFCTEALPLLVRVIQSADSKTKENVNATENCISAVGKIMKFKPDCVNVEEVLPHWLSWLPLHEDKEEAVQTFNYLCDLIESNHPIVLGPNNTNLPKIFSIIAEGEMHEAIKHEDPCAKRLANVVRQVQTSGGLWTECIAQLSPEQQAAIQELLNSA
fold co-precipitated (IPO5/Ran) against Ran T24N: 2 fold
